Reference: US10407469B2, “Programmable polypeptide and nucleic acid nanoparticles” (Northwestern University, priority 2016, dated 2019)

Columns and labels:
siRNA [1] = test: siRNA binding, electrophoresis gels; conditions: compared with P4
Text: (§1) FIGS. 1A-I. Nanoparticles of an engineered polypeptide carrying siRNA (A) C-terminus RNA binding motif CT-dsRBD (in yellow) excised from a canonical double stranded RNA binding domain (dsRBD) and fused to a self-assembly enhancer […] in order to obtain the engineered RNA binding polypeptide (P4) (B) electrophoresis gels of proteins binding siRNA (left). Plot of the bound siRNA (right). (C) Structural change of P4 and CT-dsRBD upon binding to siRNA determined by circular dichroism. (D) Increase in hydrodynamic size of P4 upon siRNA binding determined by DLS. (E) siRNA-P4 nanoparticles in solution imaged by cryo-TEM. Scale bar is 200 nm. […] (H) Salt stability of P4 nanoparticles. (I) Formation of siRNA-P4 nanoparticles in different buffers.
(§2) FIGS. 2A-J. Programmable protein for bioactive siRNA delivery nanoparticles. (A) P4 is functionalized with bioactive peptides, P4-RGD & P4-His6. […] (E) Ellipticity change in function of siRNA concentration (bottom scale) and P4-to-siRNA stoichiometry (top scale). (F) Hydrodynamic size and (G) Zeta potential of P4 nanoparticles. (H & I) Cryo-TEM and (j) AFM micrographs of siRNA-P4 nanoparticles.

siRNA [2] = test: Structural change upon siRNA binding, circular dichroism; assay type: physicochemical
Text: as §1, §2

siRNA [3] = test: Nanoparticle self-assembly upon siRNA binding (DLS, cryo-TEM); assay type: physicochemical
Text: as §1, §2

Row | binding to siRNA / nucleic acid cargo (siRNA [1]) | Substance | Structural change triggered by siRNA binding (siRNA [2]) | self-assembly into nanoparticles upon binding to nucleic acid (siRNA [3]) | hydrodynamic size upon siRNA binding (siRNA [3]; determined by DLS)
1 | bind to siRNA similarly as P4 | P4-His6: P4 functionalized with bioactive peptide His6 (HHHHHHSIRKLEYEIEELRLRIGGGTFVETGSGTSKQVAKRVAAEKLLTKFKT) | triggered by siRNA binding as in P4 |  | 
2 | bind to siRNA similarly as P4 | P4-RGD: P4 functionalized with bioactive peptide RGD (CRGDCSIRKLEYEIEELRLRIGGGTFVETGSGTSKQVAKRVAAEKLLTKFKT) | triggered by siRNA binding as in P4 |  | 
3 |  | P4: engineered RNA binding polypeptide: CT-dsRBD RNA binding motif fused to a self-assembly enhancer helix (SIRKLEYEIEELRLRIGGGTFVETGSGTSKQVAKRVAAEKLLTKFKT) |  | self-assembles into nanoparticles upon binding to siRNA | Increase
